From the supplement of paper PMC10065799, “High-throughput profiling of sequence recognition by tyrosine kinases and SH2 domains using bacterial peptide display” (eLife, 2023)

Assays:
EPHB2 = EPHB2 (UniProt P29323); experiment: phosphorylation enrichment, bacterial display (enrichment ratio); higher = better substrate or ligand; peptides without Tyr show the background
Jak2 = Jak2 (UniProt O60674); experiment: as above
Fer (mouse) = experiment: as above
FGFR1 = FGFR1 (UniProt P11362); experiment: as above
MERTK = MERTK (UniProt Q12866); experiment: as above
AncSZ = experiment: as above
Fyn = Fyn (UniProt P06241); experiment: as above
Chain of Fyn (P06241 whole entry, looked up): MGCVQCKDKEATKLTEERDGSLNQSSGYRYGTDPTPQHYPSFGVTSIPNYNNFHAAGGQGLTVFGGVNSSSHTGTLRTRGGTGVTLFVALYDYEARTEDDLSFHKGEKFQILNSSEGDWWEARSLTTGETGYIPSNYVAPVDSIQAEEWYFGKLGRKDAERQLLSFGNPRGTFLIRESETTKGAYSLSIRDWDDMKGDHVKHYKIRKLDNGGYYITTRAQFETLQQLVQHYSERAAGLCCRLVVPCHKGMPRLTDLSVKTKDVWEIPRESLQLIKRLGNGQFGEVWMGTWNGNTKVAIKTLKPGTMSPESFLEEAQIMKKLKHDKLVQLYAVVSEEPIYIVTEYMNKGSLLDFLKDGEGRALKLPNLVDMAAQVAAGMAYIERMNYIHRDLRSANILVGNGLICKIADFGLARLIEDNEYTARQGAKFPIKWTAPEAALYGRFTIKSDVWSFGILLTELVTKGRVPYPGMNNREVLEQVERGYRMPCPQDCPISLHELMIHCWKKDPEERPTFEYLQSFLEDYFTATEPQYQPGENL

Fes = Fes (UniProt P07332); experiment: as above
Chain of Fes (P07332 whole entry, looked up): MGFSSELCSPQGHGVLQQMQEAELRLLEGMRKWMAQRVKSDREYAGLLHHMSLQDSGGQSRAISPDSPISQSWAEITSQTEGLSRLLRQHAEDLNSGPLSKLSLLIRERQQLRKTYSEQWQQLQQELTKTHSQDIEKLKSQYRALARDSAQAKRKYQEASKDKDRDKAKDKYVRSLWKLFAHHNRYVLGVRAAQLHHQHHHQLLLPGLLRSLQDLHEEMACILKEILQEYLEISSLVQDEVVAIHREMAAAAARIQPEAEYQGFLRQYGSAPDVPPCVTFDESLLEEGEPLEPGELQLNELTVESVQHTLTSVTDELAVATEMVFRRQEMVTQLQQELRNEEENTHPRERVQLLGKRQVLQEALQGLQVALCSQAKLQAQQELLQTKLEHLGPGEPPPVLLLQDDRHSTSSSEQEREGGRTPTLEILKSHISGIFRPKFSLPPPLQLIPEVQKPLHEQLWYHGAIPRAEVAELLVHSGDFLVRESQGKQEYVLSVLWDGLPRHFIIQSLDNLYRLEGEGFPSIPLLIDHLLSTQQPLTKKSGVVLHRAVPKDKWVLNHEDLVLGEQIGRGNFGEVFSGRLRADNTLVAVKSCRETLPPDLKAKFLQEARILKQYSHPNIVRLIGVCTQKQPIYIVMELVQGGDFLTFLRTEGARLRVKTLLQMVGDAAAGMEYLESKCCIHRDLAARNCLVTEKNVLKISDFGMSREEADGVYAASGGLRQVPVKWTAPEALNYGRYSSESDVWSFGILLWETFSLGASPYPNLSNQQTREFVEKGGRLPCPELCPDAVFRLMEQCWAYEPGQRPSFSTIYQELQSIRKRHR

EPHB1 = EPHB1 (UniProt P54762); experiment: as above
Chain of EPHB1 (P54762 whole entry, looked up): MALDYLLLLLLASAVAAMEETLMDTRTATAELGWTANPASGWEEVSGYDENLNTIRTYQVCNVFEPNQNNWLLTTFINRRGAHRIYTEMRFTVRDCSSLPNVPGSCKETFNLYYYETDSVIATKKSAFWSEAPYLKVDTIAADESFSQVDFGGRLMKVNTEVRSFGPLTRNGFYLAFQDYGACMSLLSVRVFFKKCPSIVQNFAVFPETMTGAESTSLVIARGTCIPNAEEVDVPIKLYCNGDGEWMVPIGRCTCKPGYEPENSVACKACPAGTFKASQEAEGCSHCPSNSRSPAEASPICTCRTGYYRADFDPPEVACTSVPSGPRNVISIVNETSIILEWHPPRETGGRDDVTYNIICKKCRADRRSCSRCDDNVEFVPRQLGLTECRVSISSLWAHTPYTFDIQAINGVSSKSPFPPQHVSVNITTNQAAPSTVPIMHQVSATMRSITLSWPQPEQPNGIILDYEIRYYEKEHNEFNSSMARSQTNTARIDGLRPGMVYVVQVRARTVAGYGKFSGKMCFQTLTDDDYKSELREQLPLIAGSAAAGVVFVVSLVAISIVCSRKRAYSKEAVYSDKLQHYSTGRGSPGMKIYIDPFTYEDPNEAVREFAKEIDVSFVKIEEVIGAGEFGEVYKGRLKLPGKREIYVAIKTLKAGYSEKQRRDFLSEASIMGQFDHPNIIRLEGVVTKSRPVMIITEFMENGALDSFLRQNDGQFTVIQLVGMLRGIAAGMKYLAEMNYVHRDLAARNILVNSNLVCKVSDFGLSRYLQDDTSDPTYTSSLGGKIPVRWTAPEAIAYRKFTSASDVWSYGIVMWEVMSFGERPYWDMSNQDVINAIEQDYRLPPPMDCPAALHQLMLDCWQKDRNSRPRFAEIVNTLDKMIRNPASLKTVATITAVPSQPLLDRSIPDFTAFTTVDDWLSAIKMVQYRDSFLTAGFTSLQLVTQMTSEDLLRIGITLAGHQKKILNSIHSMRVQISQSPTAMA

FGFR3 = FGFR3 (UniProt P22607); experiment: as above
Hck = Hck (UniProt P08631); experiment: as above
Chain of Hck (P08631 whole entry, looked up): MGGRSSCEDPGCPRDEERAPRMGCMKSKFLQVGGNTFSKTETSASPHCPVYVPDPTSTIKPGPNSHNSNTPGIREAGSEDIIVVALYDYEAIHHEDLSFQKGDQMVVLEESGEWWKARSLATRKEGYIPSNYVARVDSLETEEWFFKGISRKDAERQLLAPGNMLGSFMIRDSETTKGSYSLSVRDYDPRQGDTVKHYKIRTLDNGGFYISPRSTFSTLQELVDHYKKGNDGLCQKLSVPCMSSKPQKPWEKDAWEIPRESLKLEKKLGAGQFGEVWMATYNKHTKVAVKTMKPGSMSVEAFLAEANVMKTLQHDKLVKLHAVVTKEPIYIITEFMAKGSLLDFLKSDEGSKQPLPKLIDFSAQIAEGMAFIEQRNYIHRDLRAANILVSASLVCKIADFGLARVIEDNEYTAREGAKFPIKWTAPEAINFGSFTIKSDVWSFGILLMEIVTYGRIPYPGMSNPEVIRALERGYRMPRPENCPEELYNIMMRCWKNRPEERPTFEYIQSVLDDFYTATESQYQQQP

c-Src = experiment: as above
c-Abl (mouse) = experiment: as above
Grb2 SH2 = Grb2 SH2 (UniProt P62993); experiment: SH2 binding enrichment of the phosphorylated peptide, bacterial display (enrichment ratio); higher = better substrate or ligand; peptides without Tyr show the background
SHP2-C SH2 = experiment: as above
c-Src SH2 = experiment: as above
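For SH2 binding enrichment of the phosphorylated peptide, bacterial display in this document: peptide library displayed on the E. coli surface as eCPX fusions, selected cells deep-sequenced, score is each peptide's frequency after selection divided by its frequency in the input.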
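For phosphorylation enrichment, bacterial display in this document: 11-residue human phosphosite peptides and single-mutation variants displayed on the E. coli surface, counted by deep sequencing, each peptide's frequency after selection divided by its frequency in the unselected input library; frequency after pTyr selection over input frequency; kinase dosed for 20-30% of maximal phosphorylation in three min.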

Chain of Jak2 (O60674 whole entry, looked up): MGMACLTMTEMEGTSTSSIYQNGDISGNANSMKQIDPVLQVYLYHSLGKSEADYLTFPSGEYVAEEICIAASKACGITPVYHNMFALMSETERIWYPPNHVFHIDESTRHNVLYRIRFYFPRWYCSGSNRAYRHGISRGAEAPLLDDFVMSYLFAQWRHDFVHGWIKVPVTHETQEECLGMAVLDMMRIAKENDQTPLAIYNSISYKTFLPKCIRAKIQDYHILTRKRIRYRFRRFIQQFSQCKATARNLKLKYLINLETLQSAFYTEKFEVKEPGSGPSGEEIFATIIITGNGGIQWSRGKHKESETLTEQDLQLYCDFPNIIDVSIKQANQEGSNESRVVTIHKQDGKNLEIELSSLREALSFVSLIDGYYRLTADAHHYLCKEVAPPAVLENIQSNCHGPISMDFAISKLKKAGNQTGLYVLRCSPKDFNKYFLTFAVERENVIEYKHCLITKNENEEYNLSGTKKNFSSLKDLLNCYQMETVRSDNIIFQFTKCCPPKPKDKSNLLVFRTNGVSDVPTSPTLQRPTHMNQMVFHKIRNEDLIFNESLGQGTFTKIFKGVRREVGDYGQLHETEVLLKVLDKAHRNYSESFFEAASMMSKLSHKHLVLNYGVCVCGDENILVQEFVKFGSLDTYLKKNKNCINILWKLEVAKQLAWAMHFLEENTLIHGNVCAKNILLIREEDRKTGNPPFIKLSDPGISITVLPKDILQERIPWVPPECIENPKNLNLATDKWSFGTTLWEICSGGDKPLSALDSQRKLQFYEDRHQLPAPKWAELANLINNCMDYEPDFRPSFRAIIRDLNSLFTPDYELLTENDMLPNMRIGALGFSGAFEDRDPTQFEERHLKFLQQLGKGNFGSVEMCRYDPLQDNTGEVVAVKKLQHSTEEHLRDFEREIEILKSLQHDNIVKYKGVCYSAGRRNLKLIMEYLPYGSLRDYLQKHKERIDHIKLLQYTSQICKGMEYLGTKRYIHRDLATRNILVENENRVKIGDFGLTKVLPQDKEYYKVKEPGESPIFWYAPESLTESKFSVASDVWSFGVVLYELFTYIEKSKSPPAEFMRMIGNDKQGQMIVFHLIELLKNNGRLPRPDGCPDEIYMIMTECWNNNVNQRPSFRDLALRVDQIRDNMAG
Chain of EPHB2 (P29323 whole entry, looked up): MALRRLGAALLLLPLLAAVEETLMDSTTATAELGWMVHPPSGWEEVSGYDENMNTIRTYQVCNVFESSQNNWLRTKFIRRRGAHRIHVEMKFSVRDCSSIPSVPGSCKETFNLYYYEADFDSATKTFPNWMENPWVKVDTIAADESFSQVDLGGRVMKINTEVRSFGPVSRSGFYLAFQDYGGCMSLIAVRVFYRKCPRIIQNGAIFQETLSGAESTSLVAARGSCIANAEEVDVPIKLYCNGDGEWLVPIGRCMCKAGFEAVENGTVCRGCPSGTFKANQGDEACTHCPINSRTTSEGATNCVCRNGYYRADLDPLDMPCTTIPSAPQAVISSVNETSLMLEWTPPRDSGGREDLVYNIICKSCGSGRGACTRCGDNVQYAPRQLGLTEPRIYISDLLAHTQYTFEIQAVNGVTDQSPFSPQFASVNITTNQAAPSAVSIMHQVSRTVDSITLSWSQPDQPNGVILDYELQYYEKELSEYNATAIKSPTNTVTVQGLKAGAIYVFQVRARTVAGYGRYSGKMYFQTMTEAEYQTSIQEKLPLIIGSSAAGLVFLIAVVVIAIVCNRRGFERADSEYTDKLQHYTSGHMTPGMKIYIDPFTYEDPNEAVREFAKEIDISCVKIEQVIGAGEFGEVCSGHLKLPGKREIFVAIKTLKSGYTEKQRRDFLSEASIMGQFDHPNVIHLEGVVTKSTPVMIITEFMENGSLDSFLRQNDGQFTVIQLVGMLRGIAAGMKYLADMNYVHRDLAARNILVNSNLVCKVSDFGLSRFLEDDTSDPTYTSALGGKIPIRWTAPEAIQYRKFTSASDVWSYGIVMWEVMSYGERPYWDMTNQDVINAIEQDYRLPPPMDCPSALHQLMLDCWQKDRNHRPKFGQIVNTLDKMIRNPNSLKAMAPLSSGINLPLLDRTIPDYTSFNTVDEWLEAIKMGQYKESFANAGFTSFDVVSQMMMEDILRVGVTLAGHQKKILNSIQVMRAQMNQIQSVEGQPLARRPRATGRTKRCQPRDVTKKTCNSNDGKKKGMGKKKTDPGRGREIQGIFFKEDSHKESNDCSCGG

SH2 binding enrichment (Grb2 SH2)	SH2 binding enrichment (SHP2-C SH2)	SH2 binding enrichment (c-Src SH2)	Sequence	phosphorylation enrichment (EPHB2)	phosphorylation enrichment (Jak2)	phosphorylation enrichment (Fer (mouse))	phosphorylation enrichment (FGFR1)	phosphorylation enrichment (MERTK)	phosphorylation enrichment (AncSZ)	phosphorylation enrichment (Fyn)	phosphorylation enrichment (Fes)	phosphorylation enrichment (EPHB1)	phosphorylation enrichment (FGFR3)	phosphorylation enrichment (Hck)	phosphorylation enrichment (c-Src)	phosphorylation enrichment (c-Abl (mouse))
1.04	0.867	0.599	QNTGNYFDLFG [PTPN11_Y62_D61N_YF]	22.6	4.13	0.925	21.2	10.8	1.6	0.541	1.44	27.6	15.3	0.49	0.71	1.28
0.796	0.739	0.644	KNRDVYSSDYF [USP24_Y2134]	4.03	0.945	0.495	2.07	5.77	1.1	1.19	0.944	3.39	1.15	1	2.67	0.656
1.47	1.31	1.14	KWHREYNSKYV [RICTOR_Y835]	0.401	0.513	0.32	0.37	0.339	0.461	0.398	0.414	0.348	0.42	0.371	0.294	0.461
2.38	0.729	1.39	KLGDVYVNDAF [PGK1_Y161]	0.571	0.801	0.547	0.557	0.395	0.734	0.552	0.86	0.467	0.63	0.488	0.423	0.574
1.21	0.68	0.734	DYYDLYGGEKF [PTPN11_Y66]	6.92	2.7	1.61	13.4	3.7	2.92	5.73	1.2	6.42	12.9	5.08	4.69	0.74
0.779	0.782	0.479	ARKWGYTVKGI [OAT_Y158]	0.448	0.668	0.352	0.437	0.377	0.914	0.423	0.912	0.503	0.517	0.354	0.327	0.724
1.9	1.46	1.26	TVNIRYLLFPS [SERAC1_Y548_S543T]	0.725	1.11	0.564	0.578	0.606	1.21	0.577	1.21	0.728	0.829	0.574	0.434	0.716
1.56	1.12	0.838	HITQVYGFFDE [PPP2CA_Y127_Q122H_YF]	1.11	1.95	0.823	1.32	2.8	2.03	15.7	2.38	1.09	1.16	7.13	12.7	1.69
0.952	0.79	0.536	LLVVLNKYRCY [PSEN1_Y154_Y154N]	0.875	1.68	0.53	0.73	0.456	1.34	0.631	1.6	1.03	1.39	0.448	0.577	0.96
0.826	0.957	1.12	YSNKLYYQLEQ [PDPR_Y109]	2.11	1.76	0.81	8.28	6.24	1.43	2.08	1.09	3.14	7.22	2.27	3.28	0.82
0.968	0.695	4.13	GIFSGYDDAWD [POLR1C_Y36_N32I_YF]	0.651	1.07	0.477	0.531	0.481	1.1	0.551	1.14	0.51	0.7	0.547	0.514	0.746
1.05	0.962	0.674	GFILMYDITNE [RAB3C_Y110]	1.6	1.38	0.692	0.49	0.678	1.33	0.526	1.66	1.06	0.975	0.633	0.559	0.8
0.818	0.598	0.573	FEGRSYSACTT [MMP9_Y241]	0.616	0.947	0.516	0.728	0.492	0.926	0.541	1.13	0.643	0.709	0.557	0.428	0.856
0.838	0.831	0.412	KPLMPYMRFSR [SMARCE1_Y73_YF]	0.464	0.843	0.352	0.466	0.479	1.3	0.591	0.872	0.385	0.547	0.493	0.508	0.99
0.679	0.598	0.465	ADGLEYPRTGL [MMUT_Y287_S288P]	0.55	0.495	0.47	0.414	0.319	0.722	0.508	0.835	0.425	0.59	0.47	0.288	0.528
1.17	1.31	1.83	CTTIHYNYMRN [TP53_Y234_C238R]	0.502	0.673	0.543	0.521	0.468	0.805	0.52	0.858	0.605	0.577	0.546	0.501	0.515
0.701	0.528	0.418	EVTLTYATGTK [NFKB1_Y485]	0.526	0.75	0.425	0.404	0.371	0.805	0.496	1.11	0.526	0.643	0.514	0.409	0.774
0.774	0.839	0.55	EFNINYNNELP [THG1L_Y228]	0.516	1.07	0.38	0.488	0.341	0.734	0.468	0.829	0.383	0.568	0.429	0.354	0.444

The next lines start with the sequence.

Sequence	SH2 binding enrichment (Grb2 SH2)	SH2 binding enrichment (SHP2-C SH2)	SH2 binding enrichment (c-Src SH2)	phosphorylation enrichment (EPHB2)	phosphorylation enrichment (Jak2)	phosphorylation enrichment (Fer (mouse))	phosphorylation enrichment (FGFR1)	phosphorylation enrichment (MERTK)	phosphorylation enrichment (AncSZ)	phosphorylation enrichment (Fyn)	phosphorylation enrichment (Fes)	phosphorylation enrichment (EPHB1)	phosphorylation enrichment (FGFR3)	phosphorylation enrichment (Hck)	phosphorylation enrichment (c-Src)	phosphorylation enrichment (c-Abl (mouse))
RIRRRYCQVLN [IQCF1_Y144]	0.666	0.438	0.482	0.592	0.614	0.835	0.708	0.609	0.673	0.583	1.11	0.784	0.703	0.826	0.575	0.455
RSHLPYDVTPE [IQGAP3_Y1098]	0.827	0.974	0.588	0.742	2.28	0.474	0.752	1	1.82	0.848	1.45	0.572	0.747	0.695	1.27	1.39
KDAGDYKCKAK [LRIT3_Y326]	1.4	0.767	0.83	0.312	0.579	0.312	0.448	0.332	0.542	0.386	0.618	0.408	0.517	0.55	0.384	0.654
KDGIGYISAAE [CALM2_Y100_N98I]	1.07	0.686	0.598	0.424	0.589	0.464	0.476	0.476	0.635	0.466	0.763	0.393	0.517	0.454	0.427	0.557
AHAGEYGAEAL [HBA1_Y25]	0.683	0.676	0.396	0.394	0.66	0.382	0.35	0.343	0.675	0.387	0.816	0.368	0.517	0.464	0.392	0.629
EKMWSYMKSAE [GRIA3_Y705]	0.972	0.86	0.394	0.4	0.719	0.398	0.411	0.381	0.939	0.802	0.949	0.511	0.75	0.365	0.467	0.547
LNFNEYFRDLN [HPRT1_Y198_D194N_YF]	1.11	0.955	0.608	1.01	2.25	1.03	1.18	0.972	1.78	0.866	2.1	1.23	0.803	0.99	1.15	2.15
PLRANYLIARV [HLCS_Y635_D634N]	1.27	1.29	0.992	0.861	1.27	0.7	0.707	0.716	0.927	0.769	1.12	1.12	0.853	0.763	1.01	2.74
SRDPFYEMLTA [CYTH1_Y382_A386T]	0.958	0.747	2.25	2.82	0.975	11	7.02	8.32	1.25	2.38	1.07	4.93	4.25	5.45	3.17	0.71
LIHLHYIRKDF [BBS4_Y43_YF]	2.06	2.75	1.6	1.01	0.787	0.984	0.937	0.471	1.51	0.871	1.18	1.17	1.22	0.637	0.527	0.612
ALVDTYCRHNF [HLA-DRB1_Y107_A103L_YF]	0.991	0.845	0.711	0.613	0.847	0.588	0.472	0.549	0.782	0.454	0.935	0.55	0.682	0.577	0.538	0.683
YFCRWYRNRKS [EREG_Y144]	0.716	0.623	0.571	0.572	0.683	0.478	0.61	0.889	0.864	0.618	0.635	0.621	0.515	0.741	0.753	0.714
FVHDNYVIQRT [CPS1_Y1450_R1453Q]	0.971	0.596	0.624	1.07	0.7	0.694	0.481	0.469	0.788	0.425	0.672	2.19	0.567	0.436	0.481	0.52
HGDDDYDDPEL [CLNK_Y69_S65G]	0.99	0.551	0.565	0.753	1.39	0.717	0.91	0.667	1.91	0.69	2	0.756	1.02	0.743	0.477	0.745
SRASYYRKGGC [ALK_Y1283_Y1278S]	0.644	0.473	0.607	0.371	0.641	0.326	0.414	0.428	0.522	0.38	0.5	0.34	0.335	0.37	0.52	0.585
